Measurements: patent publication US20090022663A1 (published 2009)
Substitutions are numbered along the chain they refer to.

B1: Ha16-1(3,5)27.1 (antibody, V domains shown)
VH: LVESGAEVKKPGESLKISCKGSGYRFTSYWIGWVRQMPGKGLEWMGIIYPGDSDTRYSPSFQGQVTISADKSISTAYLQWSSLKASDTAMYYCARKDYYYYSMDVWGQGTTVTVSS
VL: GQSALTQPASVSGSPGQSITISCTGTSSDVGGYNYVSWYQQHPGQAPKLLIYGVNIRPSGVSTRFSGSKSGNTASLTISGLQAEDEADYYCSSYTRSSILVVFAGGTKLTVLG
notes: VH entry holds part of the leader; both hold a portion of the constant region
B2: Ha16-1(3,5)56 (antibody, V domains shown)
VH: RCRLVESGAEVKKPGESLKISCKGSGYRFTSYWIGWVRQMPGKGLEWMGIIYPGDSDTRYSPSFQGQVTISADKSISTAYLQWRSLKASDTAMYYCARKDYYYYVMDVWGQGTTVTVSS
VL: DTISCTGTSSDVGNYNYVSWYQQHPGKAPKLMIYAVNNRPSGVSNRFSGSKSGNTASLTISGLQAEDEADYYCSSYTSSRNLVVFGGGTKLTVLG
B3: Ha16-1(1)11 (antibody, V domains shown)
VH: GPGLVKPSETLSLTCTVSGGSISSYYWSWIRQPPGKGLEWIGYIYYSGSTNYNPSLKSRVTISVDTSKNQFSLKLSSVTAADTAVYYCARAVSYYYYGMDVWGQGTTVTVSS
VL: DIQMTQSPSSLSASVGDRVTITCRTIQNINSYLNWYQQRPGKAPKLLIYATSSLQSGVPSRFSGSGSGTDFTLTISSLQPEDFATYYCQQTYSTLFTFGPGTKVDIKR
notes: also called ATCC PTA-7450
B4: H16-7.8 (antibody, V domains shown)
VH: QVQLQESGPGLVKPSQTLSLTCTVSGGSISSGGYYWSWIRQHPGKGLEWIGIIYYSGSTYYNPSLKSRVTISVDTSKNQFSLKLNSVTAADTAVFYCARVAIVTTIPGGMDVWGQGTTVTVSS
VL: EIVLTQSPDFQSVTPKEKVTITCRASQSIGISLHWYQQKPDQSPKLLIKYASQSFSGVPSRFSGSGSGTDFTLTINSLEAEDAATYYCHQSRSFPWTFGQGTKVEIKR
notes: Entries hold the leader and a portion of the constant region
B5: H16-1.93 (antibody, V domains shown)
VH: QVQLVQSGAEVKKPGASVKVSCKASGYTFTSYGISWVRQAPGQGLEWMGWISAYNGNTYYAQKLQARVTMTTDTSTSTAYMELRSLRSDDTAVYYCARDGYSSSWSLLHYYGMDVWGQGTTVTVSS
VL: DIQMTQSPSSLSASVGDRITITWRSSQGIYNSLAWYQQKPGKVPKLLIYAASTLHSGVPSRFSGSGSGTDFTLTISSLQPEDVATYYCQKYNSAPFTFGPGTKVDIKR
notes: Entries hold the leader (or part of it) and a portion of the constant region; also called ATCC PTA-7449
B6: H16-9.69 (antibody, V domains shown)
VH: WGLSEVSCKASGYTFTSYDIHWVRQATGQGLEWMGWMNPNSGNTVYAQKFQGRVTMTRNTSISTAYMELSSLRSEDTAVYYCARTVLLWPFDYWGQGTLVTVSS
VL: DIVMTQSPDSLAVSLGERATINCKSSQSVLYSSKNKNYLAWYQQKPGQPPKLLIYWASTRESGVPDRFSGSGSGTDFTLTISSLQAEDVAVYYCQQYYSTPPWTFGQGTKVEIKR
B7: Ha16-1(3,5)18 (antibody, IgG1, V domains shown)
VH: GPGLVKPSETLSLTCTVPGGSIRSYFWSWIRQPAGKGLEWIGRFYFSGSTNYNPSLKSRVTMSVDTSKNQFSLKLSSVTAADTAVYYCARDYGDHYYYYGMDVWGQGTTVTVSS
VL: VLTQPPSVSAAPGQKVTISCSGSSSNIGNNYVSWYQQFPGTAPKFLIYDNNKRSSGIPDRFSGSKSGTSATLGITGLQTGDEADYYCGTWDSSLSAVIFGGGTKLTVL
notes: The limits of VH (1-114) and VL (1-108) are stated in CLM-00001; the entries also hold a portion of the constant region; also called Ha16-1(3, 5)18.1; ATCC PTA-7452
B8: H16-9.10 (antibody, V domains shown)
VH: LLESGPGLVKPSQTLSLTCAISGDSVSSNSAAWNWIRQSPSRGLEWLGRTYYRSKWYNAYAVSVKSRMTINPDTSKNQFSLQLNSVTPEDTAVYYCAREAGGWFDPWGQGTLVTVSS
VL: DIQMTQSPSSVSASVGDRVTITCRASQGIRSWLAWYQQKPGKAPKLLIYAASSLQSGVPSRFSGSGSGTDFTLTISSLQPEDFATYYCQQANSFPPTFGGGTKVEIKR
notes: also called Ha16-9.10
B9: H16-9.44 (antibody, V domains shown)
VH: LSLTCTVSGGSISSYYWSWIRQSAGKGLEWIGRIYTGVSTNYNPSLKSRVTMSVDTSKNQFSLKLSSVTAADTAVYYCARDYYDSSGYYPFDYWGQGTLVTVSS
VL: DIQMTQSPSSLSASVGDRVTISCRASQGISNYLAWFQQKPGKAPKSLIYAASSLENGVPSKFSGSGSGTDFTLTISSLQPEDFATYYCQQYNSSPFTFGPGTKVDIRR
notes: also called Ha16-9.44
B10: H16-1.67 (antibody, V domains shown)
VH: VESGPGLVKPSQTLSLTCTVSGGSINSFGYYWSWIRQYPGKGLEWIGFLYFTGSTYYNPSLKSRVTISVDTSKSQFSLKLSSVTAADTAVYYCARAGTMVRGAHYYGMDVWGQGTTVTVSS
VL: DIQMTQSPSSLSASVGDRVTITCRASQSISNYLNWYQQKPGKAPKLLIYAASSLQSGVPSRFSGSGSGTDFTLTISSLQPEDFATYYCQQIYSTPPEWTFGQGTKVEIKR
B11: H16-1.61.1 (antibody, V domains shown)
VH: EVQLVESGGGVVQPGRSLRLSCAASGFTFSSYGMHWVRQAPGKGLEWVAVIWYDGSNKYYADSVKGRFTISRDNSKNTLYLQMNSLRAEDTAVYYCARSRITIFGVVHYGMDVWGQGTTVTVSS
VL: DTQLTQSPSSLSASVGDRVTITCRASQSISSYLNWYQLKPGKAPKLLIYAASSLESGVPSRFSGSESGTDFTLTISSLQPEDFATYYCQQSYNSPITFGPGTKVDIKR
B12: H16-1.80 (antibody, V domains shown)
VH: QVQLQESGPGLVKPSETLSLTCTVSGGSISSYYWSWIRQPPGKGLEWIGYVYFSGSTNYNPSLKSRVTISVDTSKNQFSLKLSSVTAADTAVYYCARATRDYYYYGMDVWGQGTTVTVSS
VL: B3 VL with I26S, Q27H, N28D, N30S, S31N, R39K, T51A, G66R
notes: also called Ha16-1.80; HA16-1.80
B13: H16-1.68 (antibody, V domains shown)
VH: B11 VH with Q3H, S30R, T91M, V93M
VL: TQLTQSPSSLSASVGDRVTITCRASQNINSYLNWYQQKPGKAPKLLIYAASSLQSGVPSRFSGSGSGTDFTLTISSLQPEDFTTYYCQQSYSSAPTFGGGTKLEIKR
B14: H16-1(3,5)5 (antibody, V domains shown)
VH: B2 VH with R1E, C2V, R3Q, E6Q, R84S, V105T
VL: QSALTQPASVSGSPGQSITISCTGTSSDVGGYNYVSWYQQHPGKAPKLMIYAVSNRPSGVSNRFSGSKSGNTASLTISGLQAEDEADYYCSSYTISRILVVFGGGTKLTVLG
notes: Entries hold the leader (or part of it) and a portion of the constant region; also called Ha16-1(3,5)5
B15: Ha16-1(3,5)42 (antibody, V domains shown)
VH: B2 VH with R1E, C2V, R3Q, E6Q, R84S, V105S
VL: B14 VL with G31R, Y32F, H41R, S54N, N55I, D87G, I95S, R97S, I98T, V100L
notes: Entries hold the leader (or part of it) and a portion of the constant region
B16: Ha16-1(3,5)19 (antibody, V domains shown)
VH: B2 VH with R1E, C2V, R3Q, E6Q, R84S, V105A
VL: QSALTQPASVSGSPGQSITISCTGTSSDVGRYNYVSWYQQHPGQAPKLMIYGISIRPSGVSPRFSGSKSGNTASLTISGLQAEDEADYYCSSHTSNSTLVVFAGGTKLTVLG
notes: Entries hold part of the leader and a portion of the constant region
B17: H16-9.65 (antibody, V domains shown)
VH: QVQLVESGGGVVQPGRSLRLSCAASGFTFSSYGMHWVRQAPGKGLEWVATIWFDGSNGYYADSVKGRFTISRDNSKNTLYLQMNSLRAEDTAVYYCARDSSGSYDHFDYWGQGTLVTVSS
VL: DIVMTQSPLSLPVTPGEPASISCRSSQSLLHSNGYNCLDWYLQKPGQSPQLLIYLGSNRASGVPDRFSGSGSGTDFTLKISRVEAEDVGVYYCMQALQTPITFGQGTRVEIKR
notes: Fully human XenoMouse MAb; Entries hold the leader (or part of it) and a portion of the constant region
B18: Ha16-1(3,5)36 (antibody, V domains shown)
VH: EVQLVESGPGLVKPSETLSLTCTVSGGSISSSSYYWGWIRQPPGKGLEWIGSMYYSGSTYHNPSLKSRVIISVDTSKNQFSLKLSSVTAADTAVYYCARHYITVAGIFDYWGQGTLVTVSS
VL: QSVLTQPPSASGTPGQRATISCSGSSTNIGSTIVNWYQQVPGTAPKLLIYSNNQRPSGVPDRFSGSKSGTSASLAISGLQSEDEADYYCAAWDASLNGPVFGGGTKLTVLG
B19: Ha16-1(1)23 (antibody, V domains shown)
VH: VESGGGVVQPGRSLRLSCAASGFTFRSYGMHWVRQAPGKGLEWVAVIWSDGSNKYYADSVKGRFTISRDNSKNTLYLQMNSLRAEDTAVYYCAREGYYGSGSYYYYYGMDVWGQGTTVTVSS
VL: QAGLTQPPSVSKGLRQTATLTCTGNSNNVGTQGAAWLQQHQGHPPKLLSYRNNNRPSGISERLSASTSGNTASLTITGLQPEDEADYYCSAWDSSLSAVVFGGGTKLTVLG
B20: H16-7.213 (antibody, V domains shown)
VH: WGLSEVSCKASGYTFTGYYMHWVRQAPGQGLEWMGWINPNSGGTNYAQKFQGRVTMTRDTSISTAYMELSRLRSDDTAVYYCARELRYFGWLLSSLDYWGQGTLVTVSS
VL: DIQMTQSPSSLSASVGDRVTITCRASQSISSYLNWFQQKPGKAPKLLIYAASSLQSGVPSRFSGSESGTDFTLTISSLQPEDFATYSCQQSYSFPLTFGGGTKVEIKR
B21: H16-9.33 (antibody, V domains shown)
VH: EVQLLESGPGLVKPSQTLSLTCAISGDSVSSNSAAWNWIRQSPSRGLEWLGRTYYRSKYYNAYPVSVKSRITINPDTSKNQFSLQLNSVTPEDTAVYYCAREAGGWFDPWGQGTLVTVSS
VL: B8 VL with S26N

Each binder was assayed against T1, 161P2F10B variant 1 (human 161P2F10B), on the cell surface (human, UniProt O14638 1-875) (assay: FACS titration on KU-812 cells, one site binding fit).
T1 construct: Cell surface pyrophosphatase/phosphodiesterase; also called 161P2F10B v.1; CD203c
Protocol: At the end of the incubation, cells were washed and incubated with anti-hIgG-PE detection antibody for 45 min at 4° C. After washing the unbound detection antibodies, the cells were analyzed by FACS. MFI values of each point were obtained using CellQuest Pro software and were used for the affinity calculation using Graphpad Prism software and the one site binding (hyperbola) equation.

Row | Kd [nM] | Binder
1 | 0.014 | B1
2 | 0.019 | B2
3 | 0.004 | B3
4 | 0.07 | B4
5 | 0.09 | B5
6 | 0.27 | B6
7 | 0.047 | B7
8 | 0.5 | B8
9 | 1.27 | B9
10 | 0.02 | B10

These binders were tested against T1, 161P2F10B variant 1 (human 161P2F10B), … (assay: flow cytometry on cells or ELISA on immobilized 161P2F10B).

Row | binding result | Binder
11 | binds | B11
12 | binds | B12

The binders below were run against T2, purified recombinant 161P2F10B extracellular domain (Tag5-161P2F10B ECD, amino acids 46-875) (human, UniProt O14638 46-875) (assay: SPR (BIAcore), MAb captured on chip, recombinant 161P2F10B injected, 1:1 fit;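 also: purified human MAbs immobilised by capture on a CM5 chip surface, about 150 RU of antibody per cycle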).
T2 construct: also called full length ECD
Description: Briefly, each purified human MAb is captured onto a CM5 sensor chip surface. On average approximately 150 RUs of each MAb is captured in every cycle.

Row | Kd [nM] | koff [s⁻¹] | kon [M⁻¹ s⁻¹] | Binder
13 | 4.8 | 0.000177 | 36900 | B1
14 | 2.3 | 0.000244 | 106000 | B13
15 | 14.5 | 0.000593 | 40800 | B2
16 | 7.2 | 4.76e-05 | 6600 | B14
17 | 4.3 | 0.000205 | 47600 | B15
18 | 1.68 | 8.4e-05 | 50000 | B16
19 | 5 | 0.000464 | 93700 | B17
20 | 21.7 | 0.00143 | 65800 | B3
21 | 8.7 | 0.00046 | 52900 | B18
22 | 18 | 0.00063 | 35000 | B4
23 | 4 | 0.000186 | 42400 | B6
24 | 24 | 0.00088 | 36000 | B19
25 | 3.9 | 0.000509 | 129000 | B20
26 | 28 | 0.00062 | 22000 | B7
27 | 7.4 | 0.000442 | 59500 | B8
28 | 3.9 | 0.000257 | 66300 | B21
29 | 0.76 | 0.000132 | 174000 | B9
30 | 43 | 0.0007 | 16000 | B10
